Reference: publication PMC9931213, “Structural basis for ATG9A recruitment to the ULK1 complex in mitophagy initiation” (Science Advances, 2023)
One block for each binder: values may come before it.

B2: ATG13^HORMA (1–197):TwinStrep-Flag (TSF)–ATG101 complex (complex, human)
chain 1: METDLNSQDRKDLDKFIKFFALKTVQVIVQARLGEKICTRSSSSPTGSDWFNLAIKDIPEVTHEAKKALAGQLPAVGRSMCVEISLKTSEGDSMELEIWCLEMNEKCDKEIKVSYTVYNRLSLLLKSLLAITRVTPAYRLSRKQGHEYVILYRIYFGEVQLSGLGEGFQTVRVGTVGTPVGTITLSCAYRINLAFMS
chain 2: MNCRSEVLEVSVEGRQVEEAMLAVLHTVLLHRSTGKFHYKKEGTYSIGTVGTQDVDCDFIDFTYVRVSSEELDRALRKVVGEFKDALRNSGGDGLGQMSLEFYQKKKSRWPFSDECIPWEVWTVKVHVVALATEQERQICREKVGEKLCEKIINIVEVMNRHEYLPKMPTQSEVDNVFDTGLRDVQPYLYKISFQITDALGTSVTTTMRRLIKDTLAL
notes: ATG101, human; Heterodimer of two HORMA domains formed beforehand by co-expression; also called ATG13^HORMA:ATG101; source: HEK GnTi- cells, transfected, purified (Strep-Tactin resin, Superdex 200); not shown: TwinStrep-Flag (TSF), N-terminal, kept
B3: ATG13^HORMA (1–197), no tag (domain or fragment, human, UniProt O75143 1-197, looked up)
chain: METDLNSQDRKDLDKFIKFFALKTVQVIVQARLGEKICTRSSSSPTGSDWFNLAIKDIPEVTHEAKKALAGQLPAVGRSMCVEISLKTSEGDSMELEIWCLEMNEKCDKEIKVSYTVYNRLSLLLKSLLAITRVTPAYRLSRKQGHEYVILYRIYFGEVQLSGLGEGFQTVRVGTVGTPVGTITLSCAYRINLAFMS

Experiments:
Conditions in all cases: both partners purified
[1] = biological target: B3; assay: crystal structure; ATG9 HDIR (828–839)–fused ATG101 (1–198):ATG13 (1–197) complex, 6 mg/ml; sitting drop, 288 K, 0.1 M Hepes pH 7.5, 0.2 M NaCl, 12% PEG8000; 2.4 Å
[2] = biological target: T1, MBP-ATG9A (full-length autophagy-related protein 9A) (human, UniProt Q7Z3C6 1-839); assay: pull-down; recombinant MBP-ATG9A constructs (1.2 μM) on amylose resin with TSF-ATG101:ATG13 (1–197) complex (3 μM), 4°C overnight, ITC buffer (25 mM Hepes pH 7.5, 150 mM NaCl, 1 mM MgCl2, 1 mM TCEP); full-length MBP-ATG9A in DDM/CHS micelles (0.05% DDM/CHS); SDS-PAGE
T1 construct: In detergent (DDM/CHS) micelles; also called wild-type MBP-ATG9A; ATG9A wild type (WT); source: HEK GnTi- cells, transfected; not shown: MBP, N-terminal, kept
T1 sequence (looked up): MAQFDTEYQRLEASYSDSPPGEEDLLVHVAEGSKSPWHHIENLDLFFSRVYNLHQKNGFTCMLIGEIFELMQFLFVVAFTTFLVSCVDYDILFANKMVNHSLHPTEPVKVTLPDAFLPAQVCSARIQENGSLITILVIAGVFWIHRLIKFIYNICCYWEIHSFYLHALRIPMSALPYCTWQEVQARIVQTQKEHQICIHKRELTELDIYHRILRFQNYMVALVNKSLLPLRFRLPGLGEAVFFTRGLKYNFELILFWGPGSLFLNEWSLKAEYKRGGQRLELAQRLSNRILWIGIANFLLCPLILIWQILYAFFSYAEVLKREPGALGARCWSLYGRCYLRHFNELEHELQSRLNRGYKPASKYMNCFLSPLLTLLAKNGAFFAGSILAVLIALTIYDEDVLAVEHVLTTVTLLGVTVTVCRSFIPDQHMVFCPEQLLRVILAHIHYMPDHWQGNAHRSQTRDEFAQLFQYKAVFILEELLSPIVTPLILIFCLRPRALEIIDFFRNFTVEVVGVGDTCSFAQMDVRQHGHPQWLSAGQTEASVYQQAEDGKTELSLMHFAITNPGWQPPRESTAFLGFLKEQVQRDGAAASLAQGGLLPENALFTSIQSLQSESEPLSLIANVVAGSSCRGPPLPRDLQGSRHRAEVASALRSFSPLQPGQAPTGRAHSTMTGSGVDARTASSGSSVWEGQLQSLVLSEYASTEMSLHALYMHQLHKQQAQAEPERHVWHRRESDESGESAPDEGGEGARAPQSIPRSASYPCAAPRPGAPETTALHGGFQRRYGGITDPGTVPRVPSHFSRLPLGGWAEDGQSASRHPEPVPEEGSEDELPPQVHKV

[3] = biological target: T2, ATG101 (1–198) as in the crystallised fusion (human, UniProt Q9BSB4 1-198); assay: crystal structure; ATG9 HDIR (828–839)–fused ATG101 (1–198):ATG13 (1–197) complex, 6 mg/ml; sitting drop, 288 K, 0.1 M Hepes pH 7.5, 0.2 M NaCl, 12% PEG8000; 2.4 Å
T2 construct: ATG101, human, residues 1-198; written on its own for the pairs that touch; also called ATG101 HORMA domain; source: HEK 293GnTi cells, as the C-terminal part of the fusion m32
T2 sequence (looked up): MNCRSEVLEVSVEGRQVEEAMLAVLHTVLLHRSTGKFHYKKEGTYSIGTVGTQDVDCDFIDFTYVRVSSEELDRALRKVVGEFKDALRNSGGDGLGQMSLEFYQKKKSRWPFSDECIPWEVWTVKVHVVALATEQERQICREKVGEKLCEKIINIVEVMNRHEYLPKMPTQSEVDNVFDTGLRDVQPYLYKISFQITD

[4] = biological target: B2; assay: pull-down; recombinant MBP-ATG9A constructs (1.2 μM) on amylose resin with TSF-ATG101:ATG13 (1–197) complex (3 μM), 4°C overnight, ITC buffer (25 mM Hepes pH 7.5, 150 mM NaCl, 1 mM MgCl2, 1 mM TCEP); full-length MBP-ATG9A in DDM/CHS micelles (0.05% DDM/CHS); SDS-PAGE

binding result [1]: binds
B1: ATG9A HDIR (828–839)–GSDEA–ATG101 (1–198) fusion construct (other, human)
chain: SEDELPPQVHKVGSDEAMNCRSEVLEVSVEGRQVEEAMLAVLHTVLLHRSTGKFHYKKEGTYSIGTVGTQDVDCDFIDFTYVRVSSEELDRALRKVVGEFKDALRNSGGDGLGQMSLEFYQKKKSRWPFSDECIPWEVWTVKVHVVALATEQERQICREKVGEKLCEKIINIVEVMNRHEYLPKMPTQSEVDNVFDTGLRDVQPYLYKISFQITD
notes: flexible linker of five residues; ATG101, human, residues 1-198; also called ATG9A HDIR-ATG101 fusion construct; not shown: GST, N-terminal, cleaved

Binder: B2
binding result [2]: binds

Binder: B3
binding result [3]: binds

binding result [4]: binds
B4: MBP-ATG9A (692–839), monomeric (domain or fragment, human, UniProt Q7Z3C6 692-839, looked up)
chain: QLQSLVLSEYASTEMSLHALYMHQLHKQQAQAEPERHVWHRRESDESGESAPDEGGEGARAPQSIPRSASYPCAAPRPGAPETTALHGGFQRRYGGITDPGTVPRVPSHFSRLPLGGWAEDGQSASRHPEPVPEEGSEDELPPQVHKV
notes: source: HEK GnTi- cells, transfected, purified (amylose resin, Superose 6); not shown: MBP, N-terminal, kept
